Values belong to the substance of their own block, whether it stands above or below them.
What was measured:
Test in all cases: ITC
[1] = target: WW1 domain (residues 16-50) of human WWOX (human) (UniProt Q9NZC7)
[2] = target: WW1-WW2 tandem domains (residues 16-91) of human WWOX (human) (UniProt Q9NZC7)
[3] = target: WW2_E66R mutant of the WW2 domain of WWOX (human) (UniProt Q9NZC7)
[4] = target: engineered WW2_RW domain of WWOX (E66R/Y85W double-mutant of WW2 domain) (human) (UniProt Q9NZC7)
[5] = target: WW1_W44Y mutant of the WW1 domain of WWOX (human) (UniProt Q9NZC7)
Sequence of WW1_W44Y mutant of the WW1 domain of WWOX (human) (Q9NZC7 16-50 W44Y): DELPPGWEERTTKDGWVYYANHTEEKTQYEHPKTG

[6] = target: WW2 domain (residues 57-91) of human WWOX (human) (UniProt Q9NZC7)
Sequence of WW2 domain (residues 57-91) of human WWOX (human) (Q9NZC7 57-91): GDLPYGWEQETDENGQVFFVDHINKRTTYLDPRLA

[7] = target: WW2_Y85W mutant of the WW2 domain of WWOX (human) (UniProt Q9NZC7)
Sequence of WW2_Y85W mutant of the WW2 domain of WWOX (human) (Q9NZC7 57-91 Y85W): as the sequence (Q9NZC7 57-91) above, with Y29W counted along it

[8] = target: engineered WW1-WW2rw tandem domains of WWOX (human) (UniProt Q9NZC7)
Sequence of engineered WW1-WW2rw tandem domains of WWOX (human) (Q9NZC7 16-91 E66R/Y85W): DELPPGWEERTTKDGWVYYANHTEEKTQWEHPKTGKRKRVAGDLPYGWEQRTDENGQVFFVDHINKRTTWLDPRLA

[9] = target: WW1_R25E mutant of the WW1 domain of WWOX (human) (UniProt Q9NZC7)
Sequence of WW1_R25E mutant of the WW1 domain of WWOX (human) (Q9NZC7 16-50 R25E): as the sequence (Q9NZC7 16-50 W44Y) above, with R10E, Y29W counted along it

[10] = target: WW1_R25A mutant of the WW1 domain of WWOX (human) (UniProt Q9NZC7)
Sequence of WW1_R25A mutant of the WW1 domain of WWOX (human) (Q9NZC7 16-50 R25A): as the sequence (Q9NZC7 16-50 W44Y) above, with R10A, Y29W counted along it

Sequence of WW1 domain (residues 16-50) of human WWOX (human) (Q9NZC7 16-50): as the sequence (Q9NZC7 16-50 W44Y) above, with Y29W counted along it
Sequence of WW1-WW2 tandem domains (residues 16-91) of human WWOX (human) (Q9NZC7 16-91): as the sequence (Q9NZC7 16-91 E66R/Y85W) above, with R51E, W70Y counted along it
Sequence of engineered WW2_RW domain of WWOX (E66R/Y85W double-mutant of WW2 domain) (human) (Q9NZC7 57-91 E66R/Y85W): as the sequence (Q9NZC7 57-91) above, with E10R, Y29W counted along it
Sequence of WW2_E66R mutant of the WW2 domain of WWOX (human) (Q9NZC7 57-91 E66R): as the sequence (Q9NZC7 57-91) above, with E10R counted along it

Substance: PY3_P-2A alanine mutant of the WBP2_PY3 peptide
Kd [1]: 250 µM | dH [1]: -18 kcal/mol

Substance: PY3_Y+3A alanine mutant of the WBP2_PY3 peptide
Kd [1]: 554 µM | dH [1]: -4.95 kcal/mol

Substance: PY3_Y+4A alanine mutant of the WBP2_PY3 peptide
Kd [1]: 229 µM | dH [1]: -8.35 kcal/mol

The next substances have a lower Kd [1] than those just listed; values first:

Kd [2]: 49 µM | dH [2]: -8.46 kcal/mol | stoichiometry N [2]: 1.05 | Kd [3]: > 1000 µM | Kd [4]: 91 µM | dH [4]: -5.2 kcal/mol | Kd [5]: > 1000 µM | Kd [6]: > 1000 µM | Kd [7]: > 1000 µM | Kd [8]: 59 µM | dH [8]: -8.02 kcal/mol | Kd [1]: 122 µM | dH [1]: -12.6 kcal/mol | Kd [9]: > 1000 µM | Kd [10]: > 1000 µM
Substance: WBP2_PY3 peptide (12-mer spanning the PY3 PPXY motif of human WBP2)

Kd [1]: 149 µM | dH [1]: -12.4 kcal/mol
Substance: PY3_Q-3A alanine mutant of the WBP2_PY3 peptide
